T1: prefusion-stabilized hMPV F protein (hMPV prefusion F trimer) (human metapneumovirus; subgroup/strain …, stabilised)
T1 chain 1: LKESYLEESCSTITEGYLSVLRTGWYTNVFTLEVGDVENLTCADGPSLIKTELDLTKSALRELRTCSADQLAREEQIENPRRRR
T1 chain 2: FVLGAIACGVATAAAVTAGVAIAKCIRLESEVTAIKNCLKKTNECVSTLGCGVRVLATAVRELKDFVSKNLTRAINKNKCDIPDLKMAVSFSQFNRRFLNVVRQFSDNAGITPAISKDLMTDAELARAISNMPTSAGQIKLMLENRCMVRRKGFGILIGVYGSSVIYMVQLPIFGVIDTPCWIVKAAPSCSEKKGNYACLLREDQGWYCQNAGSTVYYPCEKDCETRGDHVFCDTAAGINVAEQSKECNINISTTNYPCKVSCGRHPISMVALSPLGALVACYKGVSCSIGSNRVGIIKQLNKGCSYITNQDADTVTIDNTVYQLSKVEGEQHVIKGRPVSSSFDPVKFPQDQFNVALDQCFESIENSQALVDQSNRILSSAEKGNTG

T2: prefusion-stabilized hMPV F construct hMPV F-DS-CavEs2-IPDS (human metapneumovirus, N-linked glycans (Asn172, Asn57))
T2 chain: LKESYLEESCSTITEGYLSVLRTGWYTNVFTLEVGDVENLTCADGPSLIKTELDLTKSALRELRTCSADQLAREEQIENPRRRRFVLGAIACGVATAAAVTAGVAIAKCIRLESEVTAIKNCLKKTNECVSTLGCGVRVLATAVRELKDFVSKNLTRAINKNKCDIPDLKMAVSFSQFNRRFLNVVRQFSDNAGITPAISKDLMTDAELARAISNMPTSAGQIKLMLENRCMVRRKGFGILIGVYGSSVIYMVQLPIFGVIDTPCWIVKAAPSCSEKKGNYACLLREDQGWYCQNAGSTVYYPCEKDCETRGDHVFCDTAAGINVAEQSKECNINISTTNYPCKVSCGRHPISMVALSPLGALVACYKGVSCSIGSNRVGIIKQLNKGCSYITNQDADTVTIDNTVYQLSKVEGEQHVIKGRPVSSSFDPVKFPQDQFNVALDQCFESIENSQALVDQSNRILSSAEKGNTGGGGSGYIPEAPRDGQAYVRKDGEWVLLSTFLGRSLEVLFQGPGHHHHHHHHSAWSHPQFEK


Tests used:
[1] = biological target: T1, prefusion-stabilized hMPV F protein …; test: cell-based or functional assay
[2] = biological target: prefusion-stabilized RSV F protein (RSV prefusion F trimer) (human respiratory syncytial virus A, …, UniProt P03420, stabilised); test: ELISA
[3] = biological target: T2, prefusion-stabilized hMPV F construct …; test: cryo-EM structure

Binder | PRNT neutralisation of hMPV 97–83 and hMPV TN/93–32, IC50 [1] | binding result [2] | stoichiometry N [3]
monoclonal antibody 5–1 (recombinant human IgG1) (antibody, V domains shown) VH: QGQLVQSGPEVKKPGATVKVSCRASAYPFGNYGITWVRQVPGQGLEWVGWISAYTGHTKFPQNFQGRVTLTADTSTSTGYMELRSLTSDDTAVYYCARGPCCSSPRPYDIWGQGTMVTVSS VL: DIQMTQSPSTLSASVGDRVTITCRASQSIDDWLAWYQHSPGKAPKLLIYRASRLESGVPSRFSGSGSGTEFTLTISSLQPDDFASYYCQQCYTYSQTFGQGTRVEIK | < 10 ng/mL | binds | –
5–1 antigen-binding fragment (Fab) (Fab, V domains shown) VH: QGQLVQSGPEVKKPGATVKVSCRASAYPFGNYGITWVRQVPGQGLEWVGWISAYTGHTKFPQNFQGRVTLTADTSTSTGYMELRSLTSDDTAVYYCARGPCCSSPRPYDIWGQGTMVTVSS VL: DIQMTQSPSTLSASVGDRVTITCRASQSIDDWLAWYQHSPGKAPKLLIYRASRLESGVPSRFSGSGSGTEFTLTISSLQPDDFASYYCQQCYTYSQTFGQGTRVEIK | – | – | 3 Fabs per trimer
